Results from patent US20130004527A1.

Biological target: IgE in a panel of sera from 22 patients allergic to ragweed (human)
Assay: competition ELISA; tested as AllerR mix with 22 sera

Row | highest concentration without competition [µM] | Binder
1 | > 10 | AllerR5 (peptide) peptide: TVAFNTFTDNVDQRMPRCRHGFFQVVNNNYDKWGSYAIGGSASPTILSQGNRFCAPDERSKKNVLGRHGE
2 | > 10 | AllerR6 (peptide) peptide: VLGRHGEAAAESMKWNWRTNKDVLENGAIFVASGVDPVLTPEQSAGMIPAEPGESALSLTSSAGVLSCQPGA
3 | > 10 | VDAKLGTTRLTVSNSLFTQHQFVLLFGAGDENIEDRGMLATVAFNTFTDN [AllerR4.2]
4 | > 10 | AllerR4.3 (peptide) peptide: MHDVKVNPGGLIKSNDGPAAPRAGSDGDAISISGSSQIWIDHCSLSKSVDGLVDAKLGTTR

The remaining lines, values behind:

Row | Binder | highest concentration without competition [µM]
5 | AllerR1 (peptide) peptide: TSGAYNIIDGCWRGKADWAENRKALADCAQGFGKGTVGGKDGDIYTVTSELDDDVANPK | > 10
6 | TIDGRGAKVEIINAGFTLNGVKNVIIHNINMHDVKVNPGGLIK [AllerR3] | > 10
7 | AllerR2 (peptide) peptide: DVANPKEGTLRFGAAQNRPLWIIFERDMVIRLDKEMVVNSDKTIDGRGAKVE | > 10
